{
  "source": "paper PMC2148171",
  "about": "(The Journal of Cell Biology, 1998)",
  "key": {"[1]": {"target": "the molecule itself", "assay": "SEC + other: sucrose density gradient centrifugation"}, "[2]": {"target": "the molecule itself", "assay": "SEC + other: sucrose density gradient centrifugation", "remark": "listed apart in the source"}},
  "note": "Where two headings read alike, the source gives them in different places.",
  "data": [
    {"protein": "baculovirus produced 6x histidine-tagged recombinant CHO cell MCAK (mitotic centromere-associated kinesin) (natural protein, Chinese hamster (CHO cell MCAK), UniProt P70096 1-718, looked up) MESLPARLFPGLSIKIQRSNGLIHSANISTVNVEKSCVSVEWIEGGNTKGKEIDFDDVAAINPELLQLLPLHPKDNLPLQENVTVPKQKRRSVNSKIPAPKEGLRSRSTRMSTVPEVRIATQENEMEVELPVATNSRKQFSVATGLPRPSCPAMTELPLSMVSEEAEEQVHPTRSTSSANPARRKSCIVKEMEKMKNKREEKRAQNSEIRIKRAQEYDSSFPNWEFARMIKEFRVTIECHPLTLTDPTEEHRICVCVRKRPLNKQELAKKEIDVISVPSKCLLFVHEPKLKVDLTKYLENQAFCFDFAFDETASNEVVYRFTARPLVQTIFEGGKATCFAYGQTGSGKTHTMGGDLSGKSQNTSKGIYAMASRDVFLLKSQPRYRNLNLEVYVTFFEIYNGKVFDLLNKKAKLRVLEDSKQQVQVVGLQEYLVNCADDVIKMLNMGSACRTSGQTFANSNSSRSHACFQILLRAKGRLHGKFSLVDLAGNERGADTSSADRQTRMEGAEINKSLLALKECIRALGQNKAHTPFRESKLTQVLRDSFIGENSRTCMIAMISPGISSCEYTLNTLRYADRVKELSPHSGLSGEQPIQMETEEMEASSNGTSLAVNFKEEEELSSQMSSFNEAMSQIRELEERAMEELREIIQQGPGWLELSEMTDQPDYDLETFVNKAESALTQQTKHFSALREVIKALRVAMQLEEQASKQMNSKKRHQ", "values": [
      {"measurement": "stoichiometry N", "setting": "[1]", "result": 2}
    ]},
    {"protein": "MCAK (mitotic centromere-associated kinesin) in CHO cells (natural protein, Chinese hamster (endogenous in CHO-K1), UniProt P70096 1-718, looked up) MESLPARLFPGLSIKIQRSNGLIHSANISTVNVEKSCVSVEWIEGGNTKGKEIDFDDVAAINPELLQLLPLHPKDNLPLQENVTVPKQKRRSVNSKIPAPKEGLRSRSTRMSTVPEVRIATQENEMEVELPVATNSRKQFSVATGLPRPSCPAMTELPLSMVSEEAEEQVHPTRSTSSANPARRKSCIVKEMEKMKNKREEKRAQNSEIRIKRAQEYDSSFPNWEFARMIKEFRVTIECHPLTLTDPTEEHRICVCVRKRPLNKQELAKKEIDVISVPSKCLLFVHEPKLKVDLTKYLENQAFCFDFAFDETASNEVVYRFTARPLVQTIFEGGKATCFAYGQTGSGKTHTMGGDLSGKSQNTSKGIYAMASRDVFLLKSQPRYRNLNLEVYVTFFEIYNGKVFDLLNKKAKLRVLEDSKQQVQVVGLQEYLVNCADDVIKMLNMGSACRTSGQTFANSNSSRSHACFQILLRAKGRLHGKFSLVDLAGNERGADTSSADRQTRMEGAEINKSLLALKECIRALGQNKAHTPFRESKLTQVLRDSFIGENSRTCMIAMISPGISSCEYTLNTLRYADRVKELSPHSGLSGEQPIQMETEEMEASSNGTSLAVNFKEEEELSSQMSSFNEAMSQIRELEERAMEELREIIQQGPGWLELSEMTDQPDYDLETFVNKAESALTQQTKHFSALREVIKALRVAMQLEEQASKQMNSKKRHQ", "values": [
      {"measurement": "stoichiometry N", "setting": "[2]", "result": 2}
    ]}
  ]
}
